Experimental data from the supplement of paper PMC10266784.

B1: library; numbered along this chain (parent)
chain: MAAAAAAAAEQQSSNGPVKKSMREKAVERRSVNKEHNSNFKAGYIPIDEDRLHKTGLRGRKGNLAICVIILLFILAVINLIITLVIWAVIRIGPNGCDSMEFHESGLLRFKQVSDMGVIHPLYKSTVGGRRNENLVITGNNQPIVFQQGTTKLSVENNKTSITSDIGMQFFDPRTQNILFSTDYETHEFHLPSGVKSLNVQKASTERITSNATSDLNIKVDGRAIVRGNEGVFIMGKTIEFHMGGNMELKAENSIILNGSVMVSTTRLPSSSSGDQLGSGDWVRYKLCMCADGTLFKVQVTSQNMGCQISDNPCGNTH

Variants of: B1
Assay: SGCB cell-surface expression functional score (HA stain, bin4 vs bin1, normalised to synonymous) (log10 ratio); higher = more cell-surface SGCB (functional)
Method in brief: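 Using lentivirus at MOI <0.1, HA-tagged, YFP-fused human beta-sarcoglycan codon-saturation libraries were put into HEK293 cells with stable alpha-, gamma- and delta-sarcoglycan expression, in duplicate transductions. YFP-positive cells were collected by sorting 72 hours later, grown 5–7 days, stained on ice with Alexa Fluor 647 anti-HA, fixed, sorted into four 5% intensity bins and amplicon-sequenced. The functional score takes the median, across codons and transductions, of the log ratio of highest-bin to lowest-bin variant frequency. Within each section, synonymous variants were scaled to mean 0, SD 0.5.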

SGCB cell-surface expression functional score (log10) of substitutions, site by site:
V136: A 0.05 | N -0.01 | H -0.22 | T -0.51 | L 0.17 | C -0.25 | G -0.58 | P -1.03 | Q 0.22 | K 0.36 | E 0.05 | Y 0.15 | D -0.33 | F 0.49 | I 0.32 | S -0.3 | R -0.57 | W 0.57 | M -0.57
H120: V -0.04 | K -0.13 | R 0.35 | S 0.28 | M -0.63 | W 0.14 | N 0.06 | Q -0.03 | L 0.39 | I 0.16 | T 0.44 | P -1.27 | Y 0.03
R130: K -0.01 | F 0.13 | L 0.65 | M 0.56 | C -0.28 | W -0.57 | I 0.29 | S -0.4 | V -0.41 | D -1.07 | Q 0.47 | T -0.51 | Y 0.43 | N -0.47 | E 0.14 | P 0.33 | G -0.2 | H 0.08 | A 0.27
K124: D -0.66 | E -0.5 | P 0.61 | S 0.11 | H -0.35 | A -0.41 | Y 0.18 | N 0.4 | T 0.31 | W -0.36 | M -0.6 | C 0.21 | V 0.39 | G 0.08 | L 0.07 | R 0.3 | I 0.1 | Q 0.27 | F -0.08
I137: F -0.01 | A -1.07 | D -1.25 | L -0.12 | Q -1.71 | K -1.21 | T -0.7 | H -1.24 | V -0.52 | G -1.08 | E -0.97 | M 0.54 | R -1.41 | N -1.72 | S -1.35 | C -1.42 | P -1.44
S125: V -0.88 | K -0.93 | A -0.08 | M 0.21 | P -0.99 | I -1.02 | E -0.08 | W -0.51 | Q -0.7 | G 0.56 | T -0.3 | C 0.13 | L -1.2 | Y -0.79 | R -1.09 | H -0.37 | F -0.45 | N -0.2 | D 0.46
P121: C 0.36 | K -0.78 | F 0.33 | S 0.12 | T -0.36 | L 0.04 | Q -0.72 | R -1 | E -1.17 | I -0.16 | V 0.5 | W -0.71 | D -0.76 | Y -0.96 | A -0.17 | H -0.14 | N 0.38 | M -0.6 | G -0.47
E133: L -0.3 | G -0.14 | Y -0.25 | T 0.08 | K -0.35 | I -0.47 | D 0.54 | W 0.5 | M -0.21 | A -0.35 | F -0.38 | Q -0.09 | P -1 | S 0.19 | C 0.05 | V -0.31 | R -0.14 | H 0.17 | N 0.04
N134: R -0.6 | G -0.09 | A 0.39 | Y -0.82 | P -0.03 | V -0.29 | L -0.84 | K 0.09 | S 0.08 | C -0.25 | T -0.26 | I -0.65 | Q -0.54 | W -0.71 | F -0.37 | M -0.26 | H 0.34 | D 0.11 | E -0.18
Y123: G -0.11 | L 0.02 | E 0.65 | D -0.53 | S 0.68 | R -0.37 | W 0.33 | I -0.3 | V -0.18 | N 0.64 | H -0.35 | P 0.1 | M -0.24 | Q 0.06 | K -0.02 | F 0.2 | A 0.29 | T -0.12 | C 0.25
G128: V -0.76 | A 0.14 | L 0.03 | Q -0.11 | M 0.04 | F 0.6 | T -0.56 | H -0.22 | E 0.08 | D -0.05 | K -1.35 | I 0.01 | P -1.25 | W 0.3 | S 0.07 | C -0.21 | N 0.37 | Y 0.6 | R -0.6
L135: D -1.2 | C -0.83 | E -1.07 | N -1.44 | M -0.06 | V -0.35 | H -1.28 | Y -0.88 | F -0.08 | I -0.47 | T -1.04 | A -1.13 | Q -1.5 | G -1.2 | P -1 | R -0.77 | W -0.88 | K -1.3 | S -1.11
L122: Y 0.31 | E 0.35 | T 0.13 | P -1.07 | M 0.05 | V -0.14 | W 0.1 | D 0.28 | F -0.12 | H 0.55 | I 0.65 | K -0.12 | Q 0.48 | C 0.06 | G 0.45 | R 0.49 | S 0.31 | N -0.12 | A -0.03
V127: S -1.34 | D -1.79 | F -0.12 | M -0.2 | W -1.36 | P -0.5 | C 0.53 | G -0.79 | T -0.96 | I -0.32 | N -0.94 | Q -1.97 | K -1.2 | H -1.08 | Y -1.55 | E -0.65 | A -0.57 | R -0.96 | L -0.04
R131: Y 0.31 | M 0.59 | P -0.13 | V 0.31 | E 0.66 | T -0.17 | S -0.09 | C 0.15 | A 0.14 | Q -0.6 | N 0.24 | F -0.03 | H -0.12 | L 0.13 | G 0.16 | I 0.65 | W 0.6 | K 0.23 | D 0.14
G129: E -0.9 | K -1.37 | M -0.82 | D -0.94 | L -1.15 | Q -1.09 | R -1.04 | V -0.74 | I -0.84 | H -0.43 | N -0.81 | F -0.78 | C -1.01 | W -1.42 | P 0.12 | A -0.41 | S 0.47 | Y -0.91 | T -0.06
T126: S 0.02 | F 0.32 | Y 0.74 | H 0.76 | L -0.13 | W 0.62 | D -0.63 | K -0.52 | A 0.13 | C 0.11 | M 0.29 | N -0.36 | P -0.31 | I 0.24 | E 0.37 | G -0.18 | V -0.28 | Q -0.75 | R -0.36
N132: S -0.31 | F -0.11 | T -0.61 | I -0.22 | P -1.06 | E 0.11 | W -0.63 | G 0.13 | V -0.38 | M -0.85 | Q -0.01 | A 0.15 | C 0.33 | R -0.38 | L -0.16 | K -0.36 | Y 0.44 | D -0.52 | H 0.63
